# B1: BBSome complex member BBS5 (Homo sapiens), Q8N3I7 (parent)
# chain: MSVLDALWEDRDVRFDLSAQQMKTRPGEVLIDCLDSIEDTKGNNGDRGRLLVTNLRILWHSLALSRVNVSVGYNCILNITTRTANSKLRGQTEALYILTKCNSTRFEFIFTNLVPGSPRLFTSVMAVHRAYETSKMYRDFKLRSALIQNKQLRLLPQEHVYDKINGVWNLSSDQGNLGTFFITNVRIVWHANMNDSFNVSIPYLQIRSIKIRDSKFGLALVIESSQQSGGYVLGFKIDPVEKLQESVKEINSLHKVYSASPIFGVDYEMEEKPQPLEALTVEQIQDDVEIDSDGHTDAFVAYFADGNKQQDREPVFSEELGLAIEKLKDGFTLQGLWEVMS
# partner: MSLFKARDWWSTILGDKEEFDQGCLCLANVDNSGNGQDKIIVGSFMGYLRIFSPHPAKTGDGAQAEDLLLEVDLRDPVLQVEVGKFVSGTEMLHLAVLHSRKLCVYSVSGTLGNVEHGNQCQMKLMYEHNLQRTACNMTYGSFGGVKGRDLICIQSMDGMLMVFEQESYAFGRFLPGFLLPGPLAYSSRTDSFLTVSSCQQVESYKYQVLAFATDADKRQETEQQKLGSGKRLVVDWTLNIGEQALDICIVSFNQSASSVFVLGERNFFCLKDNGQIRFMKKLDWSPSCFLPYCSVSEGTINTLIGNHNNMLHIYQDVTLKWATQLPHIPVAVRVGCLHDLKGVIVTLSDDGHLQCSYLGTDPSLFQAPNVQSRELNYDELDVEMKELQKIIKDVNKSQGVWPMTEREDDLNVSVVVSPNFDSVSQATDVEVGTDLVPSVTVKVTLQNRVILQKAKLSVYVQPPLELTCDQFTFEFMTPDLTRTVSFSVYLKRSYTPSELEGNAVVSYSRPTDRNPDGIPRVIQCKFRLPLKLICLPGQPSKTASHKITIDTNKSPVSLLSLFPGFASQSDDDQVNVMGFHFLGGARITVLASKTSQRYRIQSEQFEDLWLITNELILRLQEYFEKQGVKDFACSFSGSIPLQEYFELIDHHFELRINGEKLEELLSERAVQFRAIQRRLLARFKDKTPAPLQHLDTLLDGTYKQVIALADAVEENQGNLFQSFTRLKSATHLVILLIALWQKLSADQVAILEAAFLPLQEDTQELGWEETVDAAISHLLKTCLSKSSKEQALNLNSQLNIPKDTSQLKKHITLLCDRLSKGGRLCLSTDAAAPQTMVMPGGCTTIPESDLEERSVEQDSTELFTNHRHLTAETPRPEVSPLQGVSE
# Variants of: B1
# Details: with pthb1_human BBS9, Q3SYG4
row,Variant,effect of a mutation on the interaction
1,MSVLDALWEDRDVRFDLSAQQMKTRPGEVLIDCLDSIEDTKGNNGDRGRLLVTNLRILWHSLALSRVNVSVGYNCILNITTRTANSKLRGQTEALYILTKCNSTRFEFIFTNLVPGSPRLFTSVMAVHRAYETSKMYRDFKLRSALIQNKQLRLLPQEHVYDKINGVWNLSSDQGNLGTFFITNVRIVWHANMNDSFNVSIPYLQIRSIKIRDSKFGLALVIESSQQSGGYVLGFEIDPVEKLQESVKEINSLHKVYSASPIFGVDYEMEEKPQPLEALTVEQIQDDVEIDSDGHTDAFVAYFADGNKQQDREPVFSEELGLAIEKLKDGFTLQGLWEVMS [K236E],disrupting interaction strength
2,MSVLDALWEDRDVRFDLSAQQMKTRPGEVLIDCLDSIEDTKGNNGDRGRLLVTNLRILWHSLALSRVNVSVGYNCILNITTRTANSKLRGQTEALYILTKCNSTRFEFIFTNLVPGSPRLFTSVMAVHRAYETSKMYRDFKLRSALIQNKQLRLLPQEHVYDKINGVWNLSSDQGNLGTFFITNVRIVWHANMNDSFNVSIPYLQIRSIKIRDSKFGLALVIESSQQSGGYVLGFAIDPVEKLQESVKEINSLHKVYSASPIFGVDYEMEEKPQPLEALTVEQIQDDVEIDSDGHTDAFVAYFADGNKQQDREPVFSEELGLAIEKLKDGFTLQGLWEVMS [K236A],with no effect
3,MSVLDALWEDRDVRFDLSAQQMKTRPGEVLIDCLDSIEDTKGNNGDRGRLLVTNLRILWHSLALSRVNVSVGYNCILNITTRTANSKLRGQTEALYILTKCNSTRFEFIFTNLVPGSPRLFTSVMAVHRAYETSKMYRDFKLRSALIQNKQLRLLPQEHVYDKINGVWNLSSDQGNLGTFFITNVRIVWHANMNDSFNVSIPYLQIRSIKIRDSKFGLALVIESSQQSGGYVLGEKIDPVEKLQESVKEINSLHKVYSASPIFGVDYEMEEKPQPLEALTVEQIQDDVEIDSDGHTDAFVAYFADGNKQQDREPVFSEELGLAIEKLKDGFTLQGLWEVMS [F235E],with no effect
4,MSVLDALWEDRDVRFDLSAQQMKTRPGEVLIDCLDSIEDTKGNNGDRGRLLVTNLRILWHSLALSRVNVSVGYNCILNITTRTANSKLRGQTEALYILTKCNSTRFEFIFTNLVPGSPRLFTSVMAVHRAYETSKMYRDFKLRSALIQNKQLRLLPQEHVYDKINGVWNLSSDQGNLGTFFITNVRIVWHANMNDSFNVSIPYLQIRSIKIRDSKFGLALVIESSQQSGGYVLGFKIKPVEKLQESVKEINSLHKVYSASPIFGVDYEMEEKPQPLEALTVEQIQDDVEIDSDGHTDAFVAYFADGNKQQDREPVFSEELGLAIEKLKDGFTLQGLWEVMS [D238K],with no effect
5,MSVLDALWEDRDVRFDLSAQQMKTRPGEVLIDCLDSIEDTKGNNGDRGRLLVTNLRILWHSLALSRVNVSVGYNCILNITTRTANSKLRGQTEALYILTKCNSTRFEFIFTNLVPGSPRLFTSVMAVHRAYETSKMYRDFKLRSALIQNKQLRLLPQEHVYDKINGVWNLSSDQGNLGTFFITNVRIVWHANMNDSFNVSIPYLQIRSIKIRDSKFGLALVIESSQQSGGYVLGFKINPVEKLQESVKEINSLHKVYSASPIFGVDYEMEEKPQPLEALTVEQIQDDVEIDSDGHTDAFVAYFADGNKQQDREPVFSEELGLAIEKLKDGFTLQGLWEVMS [D238N],disrupting interaction strength
6,MSVLDALWEDRDVRFDLSAQQMKTRPGEVLIDCLDSIEDTKGNNGDRGRLLVTNLRILWHSLALSRVNVSVGYNCILNITTRTANSKLRGQTEALYILTKCNSTRFEFIFTNLVPGSPRLFTSVMAVHRAYETSKMYRDFKLRSALIQNKQLRLLPQEHVYDKINGVWNLSSDQGNLGTFFITNVRIVWHANMNDSFNVSIPYLQIRSIKIRDSKFGLALVIESSQQSGGYVLGFKIDPEEKLQESVKEINSLHKVYSASPIFGVDYEMEEKPQPLEALTVEQIQDDVEIDSDGHTDAFVAYFADGNKQQDREPVFSEELGLAIEKLKDGFTLQGLWEVMS [V240E],with no effect
7,MSVLDALWEDRDVRFDLSAQQMKTRPGEVLIDCLDSIEDTKGNNGDRGRLLVTNLRILWHSLALSRVNVSVGYNCILNITTRTANSKLRGQTEALYILTKCNSTRFEFIFTNLVPGSPRLFTSVMAVHRAYETSKMYRDFKLRSALIQNKQLRLLPQEHVYDKINGVWNLSSDQGNLGTFFITNVRIVWHANMNDSFNVSIPYLQIRSIKIRDSKFGLALVIESSQQSGGYVLGFKIDPKEKLQESVKEINSLHKVYSASPIFGVDYEMEEKPQPLEALTVEQIQDDVEIDSDGHTDAFVAYFADGNKQQDREPVFSEELGLAIEKLKDGFTLQGLWEVMS [V240K],with no effect
8,MSVLDALWEDRDVRFDLSAQQMKTRPGEVLIDCLDSIEDTKGNNGDRGRLLVTNLRILWHSLALSRVNVSVGYNCILNITTRTANSKLRGQTEALYILTKCNSTRFEFIFTNLVPGSPRLFTSVMAVHRAYETSKMYRDFKLRSALIQNKQLRLLPQEHVYDKINGVWNLSSDQGNLGTFFITNVRIVWHANMNDSFNVSIPYLQIRSIKIRDSKFGLALVIESSQQSGGYVLGFKKDPVEKLQESVKEINSLHKVYSASPIFGVDYEMEEKPQPLEALTVEQIQDDVEIDSDGHTDAFVAYFADGNKQQDREPVFSEELGLAIEKLKDGFTLQGLWEVMS [I237K],with no effect
9,MSVLDALWEDRDVRFDLSAQQMKTRPGEVLIDCLDSIEDTKGNNGDRGRLLVTNLRILWHSLALSRVNVSVGYNCILNITTRTANSKLRGQTEALYILTKCNSTRFEFIFTNLVPGSPRLFTSVMAVHRAYETSKMYRDFKLRSALIQNKQLRLLPQEHVYDKINGVWNLSSDQGNLGTFFITNVRIVWHANMNDSFNVSIPYLQIRSIKIRDSKFGLALVIESSQQSGGYVLGFKEDPVEKLQESVKEINSLHKVYSASPIFGVDYEMEEKPQPLEALTVEQIQDDVEIDSDGHTDAFVAYFADGNKQQDREPVFSEELGLAIEKLKDGFTLQGLWEVMS [I237E],with no effect
10,MSVLDALWEDRDVRFDLSAQQMKTRPGEVLIDCLDSIEDTKGNNGDRGRLLVTNLRILWHSLALSRVNVSVGYNCILNITTRTANSKLRGQTEALYILTKCNSTRFEFIFTNLVPGSPRLFTSVMAVHRAYETSKMYRDFKLRSALIQNKQLRLLPQEHVYDKINGVWNLSSDQGNLGTFFITNVRIVWHANMNDSFNVSIPYLQIRSIKIRDSKFGLALVIESSQQSGGYVLGFKIDKVEKLQESVKEINSLHKVYSASPIFGVDYEMEEKPQPLEALTVEQIQDDVEIDSDGHTDAFVAYFADGNKQQDREPVFSEELGLAIEKLKDGFTLQGLWEVMS [P239K],with no effect
11,MSVLDALWEDRDVRFDLSAQQMKTRPGEVLIDCLDSIEDTKGNNGDRGRLLVTNLRILWHSLALSRVNVSVGYNCILNITTRTANSKLRGQTEALYILTKCNSTRFEFIFTNLVPGSPRLFTSVMAVHRAYETSKMYRDFKLRSALIQNKQLRLLPQEHVYDKINGVWNLSSDQGNLGTFFITNVRIVWHANMNDSFNVSIPYLQIRSIKIRDSKFGLALVIESSQQSGGYVLGFKIDEVEKLQESVKEINSLHKVYSASPIFGVDYEMEEKPQPLEALTVEQIQDDVEIDSDGHTDAFVAYFADGNKQQDREPVFSEELGLAIEKLKDGFTLQGLWEVMS [P239E],with no effect

# The next lines start with the values.
row,effect of a mutation on the interaction,Variant
1,disrupting interaction strength,MSVLDALWEDRDVRFDLSAQQMKTRPGEVLIDCLDSIEDTKGNNGDRGRLLVTNLRILWHSLALSRVNVSVGYNCILNITTRTANSKLRGQTEALYILTKCNSTRFEFIFTNLVPGSPRLFTSVMAVHRAYETSKMYRDFKLRSALIQNKQLRLLPQEHVYDKINGVWNLSSDQGNLGTFFITNVRIVWHANMNDSFNVSIPYLQIRSIKIRDSKFGLALVIESSQQSGGYVLGKKIDPVEKLQESVKEINSLHKVYSASPIFGVDYEMEEKPQPLEALTVEQIQDDVEIDSDGHTDAFVAYFADGNKQQDREPVFSEELGLAIEKLKDGFTLQGLWEVMS [F235K]
2,with no effect,MSVLDALWEDRDVRFDLSAQQMKTRPGEVLIDCLDSIEDTKGNNGDRGRLLVTNLRILWHSLALSRVNVSVGYNCILNITTRTANSKLRGQTEALYILTKCNSTRFEFIFTNLVPGSPRLFTSVMAVHRAYETSKMYRDFKLRSALIQNKQLRLLPQEHVYDKINGVWNLSSDQGNLGTFFITNVRIVWHANMNDSFNVSIPYLQIRSIKIRDSKFGLALVIESSQQSGGYVLGFKIEPVEKLQESVKEINSLHKVYSASPIFGVDYEMEEKPQPLEALTVEQIQDDVEIDSDGHTDAFVAYFADGNKQQDREPVFSEELGLAIEKLKDGFTLQGLWEVMS [D238E]
3,with no effect,MSVLDALWEDRDVRFDLSAQQMKTRPGEVLIDCLDSIEDTKGNNGDRGRLLVTNLRILWHSLALSRVNVSVGYNCILNITTRTANSKLRGQTEALYILTKCNSTRFEFIFTNLVPGSPRLFTSVMAVHRAYETSKMYRDFKLRSALIQNKQLRLLPQEHVYDKINGVWNLSSDQGNLGTFFITNVRIVWHANMNDSFNVSIPYLQIRSIKIRDSKFGLALVIESSQQSGGYVLGFKIAPVEKLQESVKEINSLHKVYSASPIFGVDYEMEEKPQPLEALTVEQIQDDVEIDSDGHTDAFVAYFADGNKQQDREPVFSEELGLAIEKLKDGFTLQGLWEVMS [D238A]
4,with no effect,MSVLDALWEDRDVRFDLSAQQMKTRPGEVLIDCLDSIEDTKGNNGDRGRLLVTNLRILWHSLALSRVNVSVGYNCILNITTRTANSKLRGQTEALYILTKCNSTRFEFIFTNLVPGSPRLFTSVMAVHRAYETSKMYRDFKLRSALIQNKQLRLLPQEHVYDKINGVWNLSSDQGNLGTFFITNVRIVWHANMNDSFNVSIPYLQIRSIKIRDSKFGLALVIESSQQSGGYVLGFKIDPAEKLQESVKEINSLHKVYSASPIFGVDYEMEEKPQPLEALTVEQIQDDVEIDSDGHTDAFVAYFADGNKQQDREPVFSEELGLAIEKLKDGFTLQGLWEVMS [V240A]
5,with no effect,MSVLDALWEDRDVRFDLSAQQMKTRPGEVLIDCLDSIEDTKGNNGDRGRLLVTNLRILWHSLALSRVNVSVGYNCILNITTRTANSKLRGQTEALYILTKCNSTRFEFIFTNLVPGSPRLFTSVMAVHRAYETSKMYRDFKLRSALIQNKQLRLLPQEHVYDKINGVWNLSSDQGNLGTFFITNVRIVWHANMNDSFNVSIPYLQIRSIKIRDSKFGLALVIESSQQSGGYVLGFKADPVEKLQESVKEINSLHKVYSASPIFGVDYEMEEKPQPLEALTVEQIQDDVEIDSDGHTDAFVAYFADGNKQQDREPVFSEELGLAIEKLKDGFTLQGLWEVMS [I237A]
6,with no effect,MSVLDALWEDRDVRFDLSAQQMKTRPGEVLIDCLDSIEDTKGNNGDRGRLLVTNLRILWHSLALSRVNVSVGYNCILNITTRTANSKLRGQTEALYILTKCNSTRFEFIFTNLVPGSPRLFTSVMAVHRAYETSKMYRDFKLRSALIQNKQLRLLPQEHVYDKINGVWNLSSDQGNLGTFFITNVRIVWHANMNDSFNVSIPYLQIRSIKIRDSKFGLALVIESSQQSGGYVLGFKIDAVEKLQESVKEINSLHKVYSASPIFGVDYEMEEKPQPLEALTVEQIQDDVEIDSDGHTDAFVAYFADGNKQQDREPVFSEELGLAIEKLKDGFTLQGLWEVMS [P239A]

# — IntAct's records for PubMed 29039417
